# Assay results as given in article PMC6107238, “Conformational plasticity of the intrinsically disordered protein ASR1 modulates its function as a drought stress-responsive gene” (PLoS ONE, 2018).
# T1: ASR1 (Abscisic, Stress, Ripening 1) (Solanum lycopersicum (tomato), UniProt Q08655 1-115)
# T1 sequence: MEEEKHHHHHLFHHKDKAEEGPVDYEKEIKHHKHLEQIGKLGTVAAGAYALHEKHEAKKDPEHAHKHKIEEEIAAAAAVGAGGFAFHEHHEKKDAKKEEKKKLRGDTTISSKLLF
# Experiments:
# [1] = molecular target: T1, ASR1 (Abscisic, Stress, Ripening 1); assay: fluorescence anisotropy; 100 uM ZnCl2; Buffer H: 100 mM NaCl, 20 mM HEPES pH 7.4, with 100 uM ZnCl2; 250 nM FITC-dsDNA; anisotropy temperature not stated (CD at 25 C); conditions: protein: recombinant; tags: untagged in the main text (original His6 removed); label: 5' FITC on one strand; blunt
# [2] = molecular target: the molecule itself; assay: SDS-PAGE; purified ASR1 at high protein concentrations on SDS-PAGE
Binder,Kd [1] [nM],binding result [2]
FITC-oligoC (dsDNA) DNA 1: TATTGGGCTTGG DNA 2: CCAAGCCCAATA,216 ± 10,–
"Tomato ASR1 (Abscisic, Stress, Ripening protein 1), untagged recombinant protein (natural protein, UniProt Q08655 1-115, looked up, ASR1 of tomato; 'peaks corresponding to the expected full-length protein were pooled'; 12.7 kDa by SLS; The cloning of ASR1 alone is not described; also called untagged ASR1; ASR1 recombinant protein) MEEEKHHHHHLFHHKDKAEEGPVDYEKEIKHHKHLEQIGKLGTVAAGAYALHEKHEAKKDPEHAHKHKIEEEIAAAAAVGAGGFAFHEHHEKKDAKKEEKKKLRGDTTISSKLLF",–,binds
FITC-oligoS (dsDNA) DNA 1: AGTTCTGGTTGG DNA 2: CCAACCAGAACT,1080 ± 46,–
